Measured values from US20130302347A1 (Genentech, published 2013).

What was measured:
[1] = target: T1, DR4 on transfected 293T cells (UniProt O00220 24-468, limits assumed); test: flow cytometry of transfected 293T cells, FLAG-mIGFL detected with fluorescent anti-FLAG
T1 construct: whole, on cells
T1 sequence (looked up): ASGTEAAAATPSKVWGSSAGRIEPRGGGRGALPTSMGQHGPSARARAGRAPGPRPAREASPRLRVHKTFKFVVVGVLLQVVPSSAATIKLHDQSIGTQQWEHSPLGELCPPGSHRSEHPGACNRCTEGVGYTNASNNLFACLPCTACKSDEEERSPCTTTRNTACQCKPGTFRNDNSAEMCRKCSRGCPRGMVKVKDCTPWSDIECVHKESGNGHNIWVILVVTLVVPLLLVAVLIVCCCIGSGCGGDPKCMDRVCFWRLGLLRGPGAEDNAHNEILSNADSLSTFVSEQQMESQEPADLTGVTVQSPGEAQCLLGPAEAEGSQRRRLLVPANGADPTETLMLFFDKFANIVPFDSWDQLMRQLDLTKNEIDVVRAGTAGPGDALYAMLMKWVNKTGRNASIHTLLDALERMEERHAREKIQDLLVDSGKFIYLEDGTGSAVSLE

[2] = target: T2, nerve growth factor receptor (NGFR) on transfected 293T cells (UniProt P08138 29-427, limits assumed); test: as above
T2 construct: whole, on cells
T2 sequence (looked up): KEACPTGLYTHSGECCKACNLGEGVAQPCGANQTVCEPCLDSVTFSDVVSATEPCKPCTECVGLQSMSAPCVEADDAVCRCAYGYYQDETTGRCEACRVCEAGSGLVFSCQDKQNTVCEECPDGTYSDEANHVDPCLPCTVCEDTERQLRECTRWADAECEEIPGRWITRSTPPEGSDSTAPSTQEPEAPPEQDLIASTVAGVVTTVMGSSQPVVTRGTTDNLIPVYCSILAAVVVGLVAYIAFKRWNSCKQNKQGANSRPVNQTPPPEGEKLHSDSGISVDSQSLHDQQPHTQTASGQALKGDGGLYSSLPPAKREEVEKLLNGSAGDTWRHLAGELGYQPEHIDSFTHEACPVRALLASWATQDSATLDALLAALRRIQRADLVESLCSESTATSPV

[3] = target: T3, Mouse TMEM149 on the cell surface (transfected 293T cells; mouse T cells) (mouse, UniProt Q3U4N7 23-345); test: radioligand competition assay; 125I-FLAG-mIGFL against unlabelled ligand on 293T cells expressing mouse TMEM149
T3 construct: also called mTMEM149; murine TMEM149
T3 sequence: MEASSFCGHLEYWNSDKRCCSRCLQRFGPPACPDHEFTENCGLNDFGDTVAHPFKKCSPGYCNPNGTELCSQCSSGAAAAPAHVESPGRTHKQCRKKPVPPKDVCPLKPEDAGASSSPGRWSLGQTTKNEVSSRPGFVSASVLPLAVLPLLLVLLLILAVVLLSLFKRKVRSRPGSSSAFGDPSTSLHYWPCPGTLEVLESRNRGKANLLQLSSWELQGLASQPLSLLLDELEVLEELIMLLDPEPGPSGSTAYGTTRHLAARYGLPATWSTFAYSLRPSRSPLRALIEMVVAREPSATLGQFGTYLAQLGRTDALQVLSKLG
Procedure: (§1) Reference is made to Example 11.
(§2) To determine the affinity of IGFL with TMEM149, ligands were iodinated with ¹²⁵I using the lactoperoxidase method and free ¹²⁵I-Na was removed from the labeled protein by gel filtration using a NAP-5 column. 50 μL competition reaction mixtures containing a fixed concentration of iodinated ligand and decreasing concentrations of serially diluted, unlabeled ligand were placed into 96-well plates in triplicate. To each well, HEK293T cells stably expressing human or mouse TMEM149 were added at a density of 100,000 cells in 0.2 mL of binding buffer (Dulbecco's Modified Eagle Medium with 1% bovine serum albumin, 50 mM HEPES pH 7.2 and 2 mM sodium azide). The final concentration of the iodinated ligand with cells in each competition reaction was 100 pM (100,000 cpms per 0.25 mL). The final concentration of the unlabeled ligand with cells in the competition reaction varied, starting at 500 nM and then decreasing by […] dilution for ten concentrations, and included a zero-added, buffer-only sample. […] The filters were counted on a Wallac Wizard 1470 gamma counter (PerkinElmer Life and Analytical Sciences Inc.; Wellesley, Mass.). The binding data was evaluated using NewLigand software (Genentech), which uses the fitting algorithm of Munson and Robard to determine the binding affinity of the antibody (Munson, P. J., and D. Rodbard. 1980.

[4] = target: T4, mTMEM149-Fc (mouse TMEM149 extracellular domain with C-terminal human IgG1 Fc) (mouse; human, UniProt Q3U4N7 21-163); test: SPR, mTMEM149-Fc captured on the chip
T4 construct: Only the predicted extracellular domain, without the transmembrane domain, was used; the signal peptide is residues 1-22; not shown: human IgG1 Fc, C-terminal
T4 sequence: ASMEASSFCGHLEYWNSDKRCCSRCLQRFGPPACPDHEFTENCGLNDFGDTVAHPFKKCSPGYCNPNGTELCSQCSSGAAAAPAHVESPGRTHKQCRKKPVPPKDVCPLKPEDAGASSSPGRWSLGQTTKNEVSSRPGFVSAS
Procedure: (§3) Surface plasmon resonance (SPR) was run on a BiaCore 3000 (GE healthcare, Piscataway, N.J.) at 25° C. using anti-human IgG F(ab′)₂ (Jackson Immunoresearch, West Grove, Pa.) amine-coupled to BiaCore CM5 sensor chips. For kinetic analysis of protein interactions, Fc-fusion proteins at 25 μg/ml were first captured onto sensor chips by injecting them for 3 min at 5 μl/min. Then, test proteins diluted to their indicated concentrations in HBS-P buffer (0.01 M Hepes, pH 7.4 0.15 M NaCl 0.005% Surfactant P20) were injected for 3 min at 30 μl/min. Dissociation in HBS-P buffer alone was then measured at a flow rate of […]. Sensor chips surfaces were regenerated by injecting 10 mM glycine pH 1.5 for 30 s after each cycle. Kinetic parameters were determined by fitting the data to a 1:1 Langmuir model using the Biacore 3000 evaluation software (GE Healthcare).

[5] = target: T3, Mouse TMEM149 on the cell surface …; test: radioligand competition: 125I-FLAG-mIGFL (100 pM) on 293T cells expressing murine TMEM149, unlabelled FLAG-mIGFL varied
Procedure: as §1, §2

[6] = target: TNFSF14 (UniProt O43557 74-240, limits assumed); test: SPR screen of TNF-like ligands
Procedure: as §3

[7] = target: TNFα (UniProt P01375 77-233); test: SPR screen of TNF-like ligands
Procedure: as §3

[8] = target: 4-1 BBL (UniProt P41273 71-254, limits assumed); test: SPR screen of TNF-like ligands
Procedure: as §3

[9] = target: BAFF (UniProt Q9Y275 134-285, limits assumed); test: SPR screen of TNF-like ligands
Procedure: as §3

[10] = target: T5, CD30L (UniProt P32971 63-234); test: SPR screen of TNF-like ligands
T5 sequence (looked up): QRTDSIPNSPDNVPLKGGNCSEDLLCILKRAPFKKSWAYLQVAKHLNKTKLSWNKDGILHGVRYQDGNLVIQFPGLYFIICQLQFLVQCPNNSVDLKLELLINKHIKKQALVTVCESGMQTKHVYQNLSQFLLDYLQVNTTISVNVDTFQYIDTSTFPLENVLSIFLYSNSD
Procedure: as §3

[11] = target: T6, APRIL (UniProt O75888 105-250, limits assumed); test: SPR screen of TNF-like ligands
T6 sequence (looked up): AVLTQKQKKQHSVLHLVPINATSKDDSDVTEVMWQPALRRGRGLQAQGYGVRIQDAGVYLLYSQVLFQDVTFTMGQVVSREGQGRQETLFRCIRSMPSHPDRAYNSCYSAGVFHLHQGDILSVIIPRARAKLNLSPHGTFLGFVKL
Procedure: as §3

[12] = target: T7, RANKL (UniProt O14788 140-317, limits assumed); test: SPR screen of TNF-like ligands
T7 sequence (looked up): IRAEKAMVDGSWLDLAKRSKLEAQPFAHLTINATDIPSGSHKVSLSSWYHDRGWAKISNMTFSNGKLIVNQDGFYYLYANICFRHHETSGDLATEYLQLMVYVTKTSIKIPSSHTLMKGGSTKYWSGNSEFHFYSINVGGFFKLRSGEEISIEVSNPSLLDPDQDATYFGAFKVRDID
Procedure: as §3

[13] = target: T8, LTα (UniProt P01374 35-205); test: SPR screen of TNF-like ligands
T8 sequence (looked up): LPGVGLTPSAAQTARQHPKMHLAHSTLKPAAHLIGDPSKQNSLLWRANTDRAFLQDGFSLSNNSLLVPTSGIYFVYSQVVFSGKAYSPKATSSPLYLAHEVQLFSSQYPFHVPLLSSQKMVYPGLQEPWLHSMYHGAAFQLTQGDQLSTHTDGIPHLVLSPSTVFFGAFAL
Procedure: as §3

[14] = target: T9, TL1A (UniProt O95150 72-251); test: SPR screen of TNF-like ligands
T9 sequence (looked up): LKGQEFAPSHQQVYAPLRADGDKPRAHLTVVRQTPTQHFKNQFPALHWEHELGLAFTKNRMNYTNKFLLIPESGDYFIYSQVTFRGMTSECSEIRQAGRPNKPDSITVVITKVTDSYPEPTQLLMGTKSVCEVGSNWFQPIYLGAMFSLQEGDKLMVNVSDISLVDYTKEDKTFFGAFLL
Procedure: as §3

[15] = target: T10, EDA-A1 (UniProt Q92838 245-391, limits assumed); test: SPR screen of TNF-like ligands
T10 sequence (looked up): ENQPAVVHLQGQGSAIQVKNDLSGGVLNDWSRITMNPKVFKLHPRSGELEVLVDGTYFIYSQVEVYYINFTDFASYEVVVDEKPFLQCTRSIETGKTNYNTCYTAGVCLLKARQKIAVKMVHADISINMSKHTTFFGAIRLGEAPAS
Procedure: as §3

[16] = target: TRAIL (UniProt P50591 114-281); test: SPR screen of TNF-like ligands
Procedure: as §3

[17] = target: T11, CD27L (UniProt P32970 39-193, limits assumed); test: SPR screen of TNF-like ligands
T11 sequence (looked up): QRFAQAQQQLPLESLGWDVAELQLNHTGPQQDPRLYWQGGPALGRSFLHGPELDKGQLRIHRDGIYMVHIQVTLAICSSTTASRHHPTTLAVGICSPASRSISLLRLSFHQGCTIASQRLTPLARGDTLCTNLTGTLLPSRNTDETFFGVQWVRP
Procedure: as §3

[18] = target: T12, FasL (UniProt P48023 134-281); test: SPR screen of TNF-like ligands
T12 sequence (looked up): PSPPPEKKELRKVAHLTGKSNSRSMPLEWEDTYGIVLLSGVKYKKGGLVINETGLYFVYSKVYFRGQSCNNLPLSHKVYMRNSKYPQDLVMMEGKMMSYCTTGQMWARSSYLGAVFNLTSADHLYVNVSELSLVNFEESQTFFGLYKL
Procedure: as §3

TRAIL, sequence (P50591 114-281 limits assumed): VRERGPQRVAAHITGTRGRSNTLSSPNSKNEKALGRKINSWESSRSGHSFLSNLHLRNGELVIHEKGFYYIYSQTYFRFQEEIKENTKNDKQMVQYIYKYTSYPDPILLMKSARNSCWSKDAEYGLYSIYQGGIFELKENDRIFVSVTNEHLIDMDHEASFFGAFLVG
TNFSF14, sequence (O43557 74-240 limits assumed): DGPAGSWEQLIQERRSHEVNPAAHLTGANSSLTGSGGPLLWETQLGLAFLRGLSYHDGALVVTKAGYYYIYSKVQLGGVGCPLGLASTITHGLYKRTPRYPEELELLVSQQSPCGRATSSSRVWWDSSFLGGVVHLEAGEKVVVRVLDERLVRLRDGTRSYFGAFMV
BAFF, sequence (Q9Y275 134-285 limits assumed): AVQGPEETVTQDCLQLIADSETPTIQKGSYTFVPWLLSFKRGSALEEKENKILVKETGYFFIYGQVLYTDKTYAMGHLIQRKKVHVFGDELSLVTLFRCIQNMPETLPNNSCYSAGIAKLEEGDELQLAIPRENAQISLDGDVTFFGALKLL
4-1 BBL, sequence (P41273 71-254 limits assumed): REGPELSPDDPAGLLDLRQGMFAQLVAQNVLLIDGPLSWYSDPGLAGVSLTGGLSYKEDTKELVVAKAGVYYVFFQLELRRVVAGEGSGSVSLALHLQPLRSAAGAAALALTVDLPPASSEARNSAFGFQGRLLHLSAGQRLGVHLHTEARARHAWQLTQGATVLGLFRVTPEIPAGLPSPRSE
TNFα, sequence (P01375 77-233 limits assumed): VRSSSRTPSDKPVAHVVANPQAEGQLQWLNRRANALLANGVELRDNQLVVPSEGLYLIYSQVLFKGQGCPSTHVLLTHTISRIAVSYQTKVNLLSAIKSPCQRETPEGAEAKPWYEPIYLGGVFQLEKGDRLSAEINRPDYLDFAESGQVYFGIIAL

B1: FLAG-mIGFL (recombinant mouse IGFL with N-terminal FLAG epitope tag) (ligand, not shown: small tags and cut ends)
chain: RKISTFSGPGSWPCNPKCDGRTYNPSEECCVHDTILPFKRINLCGPSCTYRPCFELCCPESYSPKKKFIVKLKVHGERSHCSSSPISRNCKSNKIFHGEDIEDNQLSLRKKSGDQP
notes: also called mIGFL-FLAG; mIGFL1
0.73 nM: Kd [3]
~0.8 nM: IC50 (read off the curve) [5]
0.15 nM: Kd [4]
no binding: binding result [1] | binding result [2]

B2: TMEM149-Fc (human TMEM149 extracellular domain with C-terminal human IgG1 Fc) (Fc fusion)
chain: SQYCGRLEYWNPDNKCCSSCLQRFGPPPCPDYEFRENCGLNDHGDFVTPPFRKCSSGQCNPDGAELCSPCGGGAVTPTPAAGGGRTPWRCRERPVPAKGHCPLTPGNPGAPSSQERSSPASSIAWRTPEPVPQQAWPN
notes: also called recombinant human TMEM149-Fc; Fc-TMEM149; not shown: human IgG1 Fc, C-terminal
no binding: binding result [6] | binding result [7] | binding result [8] | binding result [9] | binding result [10] | binding result [11] | binding result [12] | binding result [13] | binding result [14] | binding result [15] | binding result [16] | binding result [17] | binding result [18]
